Data reported in patent US6207389A, “Methods of controlling T lymphocyte mediated immune responses” (HRC Research and Development Limited Partnership, priority 1995, dated 2001).

B1: rec-p69: recombinant human islet cell antigen p69 expressed in E. coli, SEQ ID No. 2 (protein)
chain: MSGHKCSYPWDLQDRYAQDKSVVNKMQQKYWETKQAFIKATGKKEDEHVVASDADLDAKLELFHSIQRTCLDLSKAIVLYQKGICFLSQEENELGKFLRSQGFQDKTRAGKMMQATGKALCFSSQQRLALRNPLCRFHQEVETFRHRAISDTWLTVNRMEQCRTEYRGALLWMKDVSQELDPDLYKQMEKFRKVQTQVRLAKKNFDKLKMDVCQKVDLLGASRCNLLSHMLATYQTTLLHFWEKTSHTMAAIHESFKGYQPYEFTTLKSLQDPMKKLVEKEEKKKINQQESTDAAVQEPSQLISLEEENQRKESSSFKTEDGKSILSALDKGSTHTACSGPIDELLDMKSEEGACLGPVAGTPEPEGADKDDLLLLSEIFNASSLEEGEFSKEWAAVFGDGQVKEPVPTMALGEPDPKAQTGSGFLPSQLLDQNMKDLQASLQEPAKAASDLTAWFSLFADLDPLSNPDAVGKTDKEHELLNA
B2: truncated p69: 100 amino acid truncated p69 encoded by clone IS4 cDNA, contains Tep69 region, SEQ ID No. 41 (protein)
chain: MSGHKCSYPWDLQDRYAQDKSVVNKMQQKYWETKQAFIKATGKKEDEHVVASDADLDAKLELFHSIQRTCLDLSKAIVLYQKRICSF
B3: ovalbumin (protein, UniProt P01012 2-386, looked up)
Ovalbumin: GSIGAASMEFCFDVFKELKVHHANENIFYCPIAIMSALAMVYLGAKDSTRTQINKVVRFDKLPGFGDSIEAQCGTSVNVHSSLRDILNQITKPNDVYSFSLASRLYAEERYPILPEYLQCVKELYRGGLEPINFQTAADQARELINSWVESQTNGIIRNVLQPSSVDSQTAMVLVNAIVFKGLWEKAFKDEDTQAMPFRVTEQESKPVQMMYQIGLFRVASMASEKMKILELPFASGTMSMLVLLPDEVSGLEQLESIINFEKLTEWTSSNVMEERKIKVYLPRMKMEEKYNLTSVLMAMGITDVFSSSANLSGISSAESLKISQAVHAAHAEINEAGREVVGSAEAGVDAASVSEEFRADHPFLFCIKHIATNAVLFFGRCVSP
notes: bona fide non-self control antigen

Assays:
[1] = test system: PBMC from healthy subjects; assay: T cell proliferation assay with BSA and rec-p69, healthy subjects (Example 3); format: cell-based, human; settings: with or without IL2
Procedure: (§1) Cultures containing 5×10^4 cells were incubated for 7 days at 37° C. in serum-free HL-1 medium (Ventrex, Portland, Me.) containing 1 μg antigen per well for test samples.
(§2) Control cultures were treated with 1 μg human, chick or horse albumin or an equivalent volume of control recombinant antigen prepared from lysates of E. coli carrying wild type plasmid.
(§3) After an overnight pulse of 1 μci ^3 H thymidine, cultures were harvested and submitted to liquid scintillation counting. Proliferation was expressed as cpm ^3 HTdR×10^-3.
(§4) A parallel set of cell cultures was incubated with the same test antigens or control agents in the presence of 10 U human IL2.

[2] = test system: PBMC from children with recent onset diabetes; assay: T cell proliferation assay with BSA and rec-p69, patients (Example 3); format: cell-based, human; settings: 1 μg antigen
Procedure: as §1, §2, §3, §4

[3] = test system: NOD mice lymph node cells; assay: Immunization and T cell proliferation assay, NOD mice (Example 11); format: in vivo, mouse; settings: 50 μg sc in complete Freund's adjuvant, recall with 1 μg antigen in vitro
Procedure: (§5) Recombinant truncated p69 was prepared by expression of a portion of the cDNA of IS4. The cDNA was cut a few nucleotides downstream of the 3' terminal of exon 3 and was subcloned into the PET™ expression system according to the manufacturer's recommendations (Novagen Inc., Madison, Wis.). The truncated protein contains 100 amino acids and is essentially identical with the murine molecule.
(§6) Antigens were injected subcutaneously in complete Freunds' adjuvant, and local lymph nodes and blood samples were collected 10 days later. Triplicate cultures of 2×10^5 lymph node cells were incubated for 5 days in serum-free HGM-af Medium™ (Promo Cell, Heidelberg, Germany) in the presence of 1 μg of protein or synthetic peptide as recall antigen. Six hours before harvesting, 1 μCi ^3 H-thymidine (6.7 Ci/mmol) was added to the wells, and isotope incorporation was analysed by liquid scintillation counting. Values are expressed as mean counts per minute ± standard deviation (mean cpm ± SD).
(§7) Young male NOD mice (H2^G7, IE^-/-) received a single immunization with truncated p69 (as encoded by IS4 cDNA) in complete adjuvant, and antibody and T cell proliferative responses were measured 8-10 days later. MHC disparate C57/B6 (H2^b, IE^-/-) and SJL (H2^s, IE^-/-) mice served as non-diabetes prone controls (FIG. 31).

C57/B6 and SJL mice = assay: Serum antibodies to BSA and p69 by fluoroimmunoassay, control mice (Example 11); format: in vivo, mouse; settings: 50 μg sc in complete Freund's adjuvant
Procedure: (§8) Male non-obese diabetic mice (NOD, 6-7 weeks old) were immunized with 50 μg BSA, ABBOS-short peptide ([…]), recombinant truncated p69 or p69 T cell epitope peptide `Tep69` ([…]) (10). Recombinant truncated p69 was prepared by expression of a portion of the cDNA of IS4. The cDNA was cut a few nucleotides downstream of the 3' terminal of exon 3 and was subcloned into the PET™ expression system according to the manufacturer's recommendations (Novagen Inc., Madison, Wis.).
(§9) Antigens were injected subcutaneously in complete Freunds' adjuvant, and local lymph nodes and blood samples were collected 10 days later. […] Six hours before harvesting, 1 μCi ^3 H-thymidine (6.7 Ci/mmol) was added to the wells, and isotope incorporation was analysed by liquid scintillation counting. Values are expressed as mean counts per minute ± standard deviation (mean cpm ± SD).
(§10) Serum antibodies to BSA and p69 were measured by particle concentration fluoroimmunoassay, as described (11). […] Bound fluorescence was read by an automated ScreenMachine™ instrument (IDEXX, Portland, Me.). Data are expressed in kilofluorescence units relative to a standard mouse serum analyzed in parallel within each assay plate.
(§11) Young male NOD mice (H2^G7, IE^-/-) received a single immunization with truncated p69 (as encoded by IS4 cDNA) in complete adjuvant, and antibody and T cell proliferative responses were measured 8-10 days later. […]

[4] = test system: C57/B6 and SJL mice lymph node cells; assay: Immunization and T cell proliferation assay, non-diabetes prone control mice (Example 11); format: in vivo, mouse; settings: 50 μg sc in complete Freund's adjuvant
Procedure: as §5, §6, §7

NOD mice = assay: Serum antibodies to BSA and p69 by fluoroimmunoassay, NOD mice (Example 11); format: in vivo, mouse; settings: 50 μg sc in complete Freund's adjuvant
Procedure: as §8, §9, §10, §11

[5] = listed as recombinant truncated p69

| Molecule | proliferative response of samples from healthy subjects [1] | proliferative response of patient samples ([2]; absence of IL2) | proliferative response of patient samples ([2]; absence of IL2, listed as recombinant human p69 protein) | proliferative response of patient samples ([2]; presence of 10 U IL2, listed as recombinant human p69 protein) | T cell proliferative response after immunisation [3] | T cell proliferative response after immunisation [3, 5] | antibody response after immunisation (anti-p69 or anti-BSA) (C57/B6 and SJL mice) | T cell proliferative response after immunisation [4] | T cell proliferative response after immunisation [4, 5] | antibody response after immunisation (anti-p69 or anti-BSA) (NOD mice) | antibody response after immunisation (anti-p69 or anti-BSA) (NOD mice; [5]) |
| --- | --- | --- | --- | --- | --- | --- | --- | --- | --- | --- | --- |
| B1 | no significant proliferative response | at best a small proliferative response | little or no proliferative response | full proliferative response | – | – | – | – | – | – | – |
| B2 | – | – | – | – | Vigorous p69-specific antibody and T cell responses | vigorous B- and T cell responses | not in C57/B6 or SJL strains | not in C57/B6 or SJL strains | essentially no responses | Vigorous p69-specific antibody and T cell responses | vigorous B- and T cell responses |
| B3 | – | – | – | – | – | – | comparable responses | comparable responses | – | – | – |
